Laboratory results published in paper PMC11347137, “Cytosine analogues as DNA methyltransferase substrates”.

B1: 30-5mZ / 30-5mC-down (dsDNA)
DNA 1: CAGCATTATCACAGCGTTTACACAATAACC
DNA 2: GGTTATTGTGTAAACGCTGTGATAATGCTG
modifications: 5-methyl-2-pyrimidinone (5-methylzebularine) at position 15 of strand 1 (written C); 5mC at position 15 of strand 2
B2: 30-dhaC / 30-5mC-down (dsDNA)
DNA 1: CAGCATTATCACAGCGTTTACACAATAACC
DNA 2: GGTTATTGTGTAAACGCTGTGATAATGCTG
modifications: 5,6-dihydro-5-azacytosine at position 15 of strand 1 (written C); 5mC at position 15 of strand 2

Target: M.MpeI (called wild type) (Mycoplasma penetrans? (printed "M. …, UniProt Q8EVR5 1-395, Q68R;K71R;S295P))
Experiment: EMSA; 80 uM SAM, 1 mM DTT, 10 mM MgCl2; non-covalent complex among the most abundant; EMSA: 10 mM Tris-HCl pH 7.9, 50 mM NaCl, 10 mM MgCl2, 1 mM DTT, 80 uM SAM, 37 C 1 h, 1 uM DNA, 0.5-4 uM protein; covalent SDS-PAGE: 10 mM Tris-HCl pH 7.9, 50 mM NaCl, 160 uM SAM or sinefungin, +/-10 mM DTT, 37 C
Conditions: protein: recombinant; tags: C-terminal LEHHHHHH; label: 5' Cy3 or 5' 32P on strand 2; blunt

Binder	binding result
B1	binds
B2	binds
